This data set deals with telomerase. As to the kind of experiment: Telomerase activity (TRAP) in cells of patients with dyskeratosis congenita. Type of data set: cell-based, human. Conditions: DC-1, DC-2, DC-3 and carrier parent (DC-C) cells; 24 hours after transfection vs empty vector. The method, then:
FIG. 10.—Telomerase activity and expression levels of hTERT and hTR in the cells of patients with dyskeratosis congenita and in VA13 cells transiently transfected with the 24.2 plasmid or the pLNCX empty vector. A) Telomerase activity measured by means of the TRAP assay in the cells of patients with dyskeratosis congenita (DC-1, DC-2 and DC-3) and in the carrier parent (DC-C) following electroporation of 45 μg of the pLNCX empty plasmid (−) or the pLNCX 24.2 vector (+) by 15 million cells. B) RT-PCR of the RNA from cells of one of the patients with dyskeratosis congenita, DC3 transfected with the empty vector and DC3 transfected with the 24.2 plasmid, using oligos specific for hTERT and hTR. As a starting RNA control, oligos for the amplification of GAPDH were used. C) Telomerase activity in VA13 cells. […] 24 hours later, the telomerase activity was analysed as described above, using dilutions of the protein extracts from each transfection. […] RNA levels were detected as described above. […] After 24 h of transfection, the luciferase activity was analyzed as described above. […]
Telomerase activity assay based on the TRAP method Wright et al., 1995). The telomerase activity was measured using the TRAPeze telomerase detection kit (Intergen) in accordance with the instruction manual. […]

The results in this text go back to US9587002B2, “Sequence of nucleotides and peptides GSE 24.2 of dyskerin, which can induce telomerase activity, method for obtaining same, therapeutic compositions and applications thereof” (CONSEJO SUPERIOR DE INVESTIGACIONES CIENTIFICAS, priority 2005, dated 2017).

Entries after “also recorded” stand apart in the source; their conditions may differ.

B1: GSE 24.2: 165-pb cDNA fragment (nucleotides 268 to 433) of human dyskerin, SEQ ID NO1, encoding peptide SEQ ID NO2, expressed from pLNCX plasmid (nucleic acid, listed as Homo sapiens)
DNA: GGTTTCATTAATCTTGACAAGCCCTCTAACCCCTCTTCCCATGAGGTGGTAGCCTGGATTCGACGGATACTTCGGGTGGAGAAGACAGGGCACAGTGGTACTCTGGATCCCAAGGTGACTGGTTGTTTAATCGTGTGCATAGAACGAGCCACTCGCTTGGTGAAG
modifications: expressed from pLNCX plasmid; CDS (1)..(165) Sequence GSE 24.2
With B1, the “telomerase activity in dyskeratosis congenita cells” value was “an increase in telomerase activity was observed; also recorded: compensates for the defects in telomerase activity”.
